# Measured values taken from patent publication US20230002480A1.
# B1: N49P23 (antibody, V domains shown)
# VH: QVRLVQSGAGARKTGASMKLSCSTSGYTFTTHHGHFINWVRQARGQGLEWMGWMNPMTGQMNIEGKFQGRVTLTRDIYSDTAYMEMTRLTTGDTGTYYCARGDFGQNYPFHYWGQGSLVIVSS
# VL: LSALTQPASVSGSPGQSVTISCSGTNRYLVSWYQQHPDKAPKLIIYDDNKRPSGISDRFSASRPDDTASLTISGLQTGDEATYWCASYERFGGGTRLTVLS
# Columns and labels:
# Assay in all cases: cell-based or functional assay
# [1] = biological target: HIV-1 Env of pseudovirus ZM214M.PL15 (HIV-1)
# [2] = biological target: HIV-1 Env of pseudovirus CNE17 (HIV-1)
# [3] = biological target: HIV-1 Env of pseudovirus A07412M1.vrc12 (HIV-1)
# [4] = biological target: HIV-1 Env of pseudovirus THRO4156.18 (HIV-1)
# [5] = biological target: HIV-1 Env of pseudovirus P0402_c2_11 (HIV-1)
# [6] = biological target: HIV-1 Env of pseudovirus Ce1176_A3 (HIV-1)
# [7] = biological target: HIV-1 Env of pseudovirus Q461.e2 (HIV-1)
# [8] = biological target: HIV-1 Env of pseudovirus X1632_S2_B10 (HIV-1)
# [9] = biological target: HIV-1 Env of pseudovirus 1394C9G1(Rev-) (HIV-1)
# [10] = biological target: HIV-1 Env of pseudovirus RHPA4259.7 (HIV-1)
# [11] = biological target: HIV-1 Env of pseudovirus SC05_8C11_2344 (HIV-1)
# [12] = biological target: HIV-1 Env of pseudovirus 1012_11_TC21_3257 (HIV-1)
# [13] = biological target: HIV-1 Env of pseudovirus 1056_10_TA11_1826 (HIV-1)
# [14] = biological target: HIV-1 Env of pseudovirus 7030102001E5(Rev-) (HIV-1)
# [15] = biological target: HIV-1 Env of pseudovirus 6540.v4.c1 (HIV-1)
# [16] = biological target: HIV-1 Env of pseudovirus 3103.v3.c10 (HIV-1)
# [17] = biological target: HIV-1 Env of pseudovirus TRO.11 (HIV-1)
# [18] = biological target: HIV-1 Env of pseudovirus HIV-001428-2.42 (HIV-1)
# [19] = biological target: HIV-1 Env of pseudovirus AC10.0.29 (HIV-1)
# [20] = biological target: HIV-1 Env of pseudovirus ZM109F.PB4 (HIV-1)
# [21] = biological target: HIV-1 Env of pseudovirus HIV-0013095-2.11 (HIV-1)
# [22] = biological target: HIV-1 Env of pseudovirus CNE5 (HIV-1)
# [23] = biological target: HIV-1 Env of pseudovirus TRJO4551.58 (HIV-1)
# [24] = biological target: HIV-1 Env of pseudovirus 211-9 (HIV-1)
# [25] = biological target: HIV-1 Env of pseudovirus 231965.c01 (HIV-1)
# [26] = biological target: HIV-1 Env of pseudovirus R1166.c01 (HIV-1)
# [27] = biological target: HIV-1 Env of pseudovirus CNE58 (HIV-1)
# [28] = biological target: HIV-1 Env of pseudovirus X2131_C1_B5 (HIV-1)
# [29] = biological target: HIV-1 Env of pseudovirus T255-34 (HIV-1)
# [30] = biological target: HIV-1 Env of pseudovirus BJOX015000.11.5 (HIV-1)
# [31] = biological target: HIV-1 Env of pseudovirus CNE8 (HIV-1)
# [32] = biological target: HIV-1 Env of pseudovirus BJOX028000.10.3 (HIV-1)
binder,measurement,setting,value
B1,IC50,[1],0.061 µg/mL
same,IC80,[1],0.614 µg/mL
same,MPI,[1],100
same,IC50,[2],0.221 µg/mL
same,IC80,[2],0.809 µg/mL
same,MPI,[2],100
same,IC50,[3],0.114 µg/mL
same,IC80,[3],0.83 µg/mL
same,MPI,[3],97
same,IC50,[4],1.98 µg/mL
same,IC80,[4],10.7 µg/mL
same,MPI,[4],97
same,IC50,[5],0.022 µg/mL
same,IC80,[5],0.065 µg/mL
same,MPI,[5],100
same,IC50,[6],0.297 µg/mL
same,IC80,[6],1.38 µg/mL
same,MPI,[6],100
same,IC50,[7],0.099 µg/mL
same,IC80,[7],0.464 µg/mL
same,MPI,[7],100
same,IC50,[8],0.13 µg/mL
same,IC80,[8],> 50 µg/mL
same,MPI,[8],62
same,IC50,[9],> 50 µg/mL
same,IC80,[9],> 50 µg/mL
same,MPI,[9],34
same,IC50,[10],0.01 µg/mL
same,IC80,[10],0.04 µg/mL
same,MPI,[10],100
same,IC50,[11],0.133 µg/mL
same,IC80,[11],0.548 µg/mL
same,MPI,[11],100
same,IC50,[12],0.013 µg/mL
same,IC80,[12],0.085 µg/mL
same,MPI,[12],100
same,IC50,[13],0.075 µg/mL
same,IC80,[13],0.483 µg/mL
same,MPI,[13],100
same,IC50,[14],0.172 µg/mL
same,IC80,[14],0.797 µg/mL
same,MPI,[14],100
same,IC50,[15],> 50 µg/mL
same,IC80,[15],> 50 µg/mL
same,MPI,[15],29
same,IC50,[16],43.8 µg/mL
same,IC80,[16],> 50 µg/mL
same,MPI,[16],54
same,IC50,[17],0.094 µg/mL
same,IC80,[17],0.336 µg/mL
same,MPI,[17],100
same,IC50,[18],0.036 µg/mL
same,IC80,[18],0.241 µg/mL
same,MPI,[18],98
same,IC50,[19],> 50 µg/mL
same,IC80,[19],> 50 µg/mL
same,MPI,[19],0
same,IC50,[20],0.039 µg/mL
same,IC80,[20],0.18 µg/mL
same,MPI,[20],100
same,IC50,[21],0.114 µg/mL
same,IC80,[21],0.899 µg/mL
same,MPI,[21],96
same,IC50,[22],0.058 µg/mL
same,IC80,[22],0.226 µg/mL
same,MPI,[22],100
same,IC50,[23],0.016 µg/mL
same,IC80,[23],0.068 µg/mL
same,MPI,[23],100
same,IC50,[24],> 50 µg/mL
same,IC80,[24],> 50 µg/mL
same,MPI,[24],14
same,IC50,[25],> 50 µg/mL
same,IC80,[25],> 50 µg/mL
same,MPI,[25],35
same,IC50,[26],0.123 µg/mL
same,IC80,[26],0.455 µg/mL
same,MPI,[26],100
same,IC50,[27],> 50 µg/mL
same,IC80,[27],> 50 µg/mL
same,MPI,[27],9
same,IC50,[28],0.08 µg/mL
same,IC80,[28],0.28 µg/mL
same,MPI,[28],100
same,IC50,[29],> 50 µg/mL
same,IC80,[29],> 50 µg/mL
same,MPI,[29],20
same,IC50,[30],> 50 µg/mL
same,IC80,[30],> 50 µg/mL
same,MPI,[30],0
same,IC50,[31],6.35 µg/mL
same,IC80,[31],47.3 µg/mL
same,MPI,[31],81
same,IC50,[32],0.021 µg/mL
same,IC80,[32],0.123 µg/mL
same,MPI,[32],98
